Measurements taken from US20210371536A1 (SEOUL NATIONAL UNIVERSITY R AND DB FOUNDATION, published 2021).

T1: cynomolgus monkey PDGFR-β (Fc chimera) (cynomolgus monkey)
T1 construct: not shown: human Fc (hFc) and its junction to the receptor part
T1 chain: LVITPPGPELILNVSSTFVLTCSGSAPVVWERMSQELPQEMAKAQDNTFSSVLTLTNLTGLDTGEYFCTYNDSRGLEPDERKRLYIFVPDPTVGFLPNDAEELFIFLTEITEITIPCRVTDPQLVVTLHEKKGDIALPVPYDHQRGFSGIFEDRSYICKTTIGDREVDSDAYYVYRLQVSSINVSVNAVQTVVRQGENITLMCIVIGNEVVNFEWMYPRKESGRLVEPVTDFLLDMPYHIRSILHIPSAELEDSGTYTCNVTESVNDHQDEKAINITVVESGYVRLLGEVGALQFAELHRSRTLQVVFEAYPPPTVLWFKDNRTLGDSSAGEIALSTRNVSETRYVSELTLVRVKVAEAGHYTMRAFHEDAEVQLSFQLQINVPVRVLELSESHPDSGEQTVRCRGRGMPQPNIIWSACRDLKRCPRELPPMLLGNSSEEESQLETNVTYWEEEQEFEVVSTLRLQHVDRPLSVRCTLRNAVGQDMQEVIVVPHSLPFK

T2: Sus scrofa PDGFR-β-Fc chimera (Sus scrofa, UniProt Q6QNF3 33-530 (dog entry))
T2 construct: also called Sus crowfa PDGFR-β; not shown: human Fc (hFc) and its junction to the receptor part
T2 chain: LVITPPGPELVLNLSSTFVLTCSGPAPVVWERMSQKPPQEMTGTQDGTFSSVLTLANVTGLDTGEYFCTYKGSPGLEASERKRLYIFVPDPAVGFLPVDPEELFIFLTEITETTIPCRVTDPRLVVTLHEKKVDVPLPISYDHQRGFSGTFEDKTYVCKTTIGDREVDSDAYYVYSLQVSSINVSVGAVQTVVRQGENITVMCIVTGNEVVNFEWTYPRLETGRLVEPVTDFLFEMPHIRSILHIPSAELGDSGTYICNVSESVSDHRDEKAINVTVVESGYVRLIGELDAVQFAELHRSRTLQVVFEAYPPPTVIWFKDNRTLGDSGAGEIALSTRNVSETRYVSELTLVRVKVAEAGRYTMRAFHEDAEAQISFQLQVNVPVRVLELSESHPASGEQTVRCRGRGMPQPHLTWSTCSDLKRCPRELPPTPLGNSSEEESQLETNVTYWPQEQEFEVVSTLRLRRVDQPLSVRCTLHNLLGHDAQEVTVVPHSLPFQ


How the values were obtained:
mPDGFR-β on NIH3T3 cells [1] = biological target: T3, mPDGFR-β on NIH3T3 cells (mouse, UniProt P05622 32-1098); experiment: flow cytometry on NIH3T3 cells expressing mPDGFR-β, streptavidin-PE detection
T3 construct: whole, on cells; also called NIH3T3 cells expressing mPDGFR-β; PDGFR-β present on the cell surface
Procedure: The cells were treated with APC-anti human Cκ antibody and streptavidin-PE.
After washing, it was classified and analyzed with a FACS Canto II instrument (BD Biosciences, San Jose, Calif., USA). 10,000 cells were used for each measurement, and the results were analyzed by FlowJo (Tree Star, Ashland, Oreg., USA).

[2] = biological target: T1, cynomolgus monkey PDGFR-β (Fc chimera); experiment: cross-species ELISA on coated antigen, 100 nM bispecific, HRP-anti-human Cκ detection
[3] = biological target: T2, Sus scrofa PDGFR-β-Fc chimera; experiment: as above
[4] = biological target: hPDGFR-β on human pericyte cells (human, UniProt P09619 33-1106); experiment: cell-based or functional assay
mPDGFR-β on NIH3T3 cells [5] = biological target: T3, mPDGFR-β on NIH3T3 cells; experiment: flow cytometry on NIH3T3 cells expressing mPDGFR-β, 100 nM, APC-anti human Cκ detection

Sequence of hPDGFR-β on human pericyte cells (P09619 33-1106): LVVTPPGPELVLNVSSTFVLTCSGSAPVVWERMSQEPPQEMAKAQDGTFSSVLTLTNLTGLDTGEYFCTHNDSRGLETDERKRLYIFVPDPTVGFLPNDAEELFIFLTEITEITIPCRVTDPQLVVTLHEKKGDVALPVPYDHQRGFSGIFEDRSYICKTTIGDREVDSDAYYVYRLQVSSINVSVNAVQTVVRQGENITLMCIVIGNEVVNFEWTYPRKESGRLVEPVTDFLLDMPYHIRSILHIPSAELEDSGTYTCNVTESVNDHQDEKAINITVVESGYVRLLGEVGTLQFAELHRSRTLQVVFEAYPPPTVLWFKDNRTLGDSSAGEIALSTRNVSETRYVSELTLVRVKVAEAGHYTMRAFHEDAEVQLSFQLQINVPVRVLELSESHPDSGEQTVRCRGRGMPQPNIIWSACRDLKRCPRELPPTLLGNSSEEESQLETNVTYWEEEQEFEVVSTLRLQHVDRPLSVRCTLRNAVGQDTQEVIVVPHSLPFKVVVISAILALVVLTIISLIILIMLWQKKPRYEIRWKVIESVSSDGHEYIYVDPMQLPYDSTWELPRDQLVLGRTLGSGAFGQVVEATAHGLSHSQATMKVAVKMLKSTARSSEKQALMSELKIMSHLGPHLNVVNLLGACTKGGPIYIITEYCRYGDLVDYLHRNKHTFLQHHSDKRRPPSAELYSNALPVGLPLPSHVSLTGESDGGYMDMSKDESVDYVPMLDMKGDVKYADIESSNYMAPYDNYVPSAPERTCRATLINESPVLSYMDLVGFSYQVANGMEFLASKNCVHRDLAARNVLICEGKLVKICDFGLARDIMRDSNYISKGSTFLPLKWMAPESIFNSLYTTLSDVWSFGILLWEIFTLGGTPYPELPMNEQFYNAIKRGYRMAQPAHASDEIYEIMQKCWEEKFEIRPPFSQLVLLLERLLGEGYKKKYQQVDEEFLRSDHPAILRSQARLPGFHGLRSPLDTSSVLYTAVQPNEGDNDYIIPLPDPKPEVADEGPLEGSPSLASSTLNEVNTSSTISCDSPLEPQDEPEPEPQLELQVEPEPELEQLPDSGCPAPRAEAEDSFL
T3 sequence (P05622 32-1098): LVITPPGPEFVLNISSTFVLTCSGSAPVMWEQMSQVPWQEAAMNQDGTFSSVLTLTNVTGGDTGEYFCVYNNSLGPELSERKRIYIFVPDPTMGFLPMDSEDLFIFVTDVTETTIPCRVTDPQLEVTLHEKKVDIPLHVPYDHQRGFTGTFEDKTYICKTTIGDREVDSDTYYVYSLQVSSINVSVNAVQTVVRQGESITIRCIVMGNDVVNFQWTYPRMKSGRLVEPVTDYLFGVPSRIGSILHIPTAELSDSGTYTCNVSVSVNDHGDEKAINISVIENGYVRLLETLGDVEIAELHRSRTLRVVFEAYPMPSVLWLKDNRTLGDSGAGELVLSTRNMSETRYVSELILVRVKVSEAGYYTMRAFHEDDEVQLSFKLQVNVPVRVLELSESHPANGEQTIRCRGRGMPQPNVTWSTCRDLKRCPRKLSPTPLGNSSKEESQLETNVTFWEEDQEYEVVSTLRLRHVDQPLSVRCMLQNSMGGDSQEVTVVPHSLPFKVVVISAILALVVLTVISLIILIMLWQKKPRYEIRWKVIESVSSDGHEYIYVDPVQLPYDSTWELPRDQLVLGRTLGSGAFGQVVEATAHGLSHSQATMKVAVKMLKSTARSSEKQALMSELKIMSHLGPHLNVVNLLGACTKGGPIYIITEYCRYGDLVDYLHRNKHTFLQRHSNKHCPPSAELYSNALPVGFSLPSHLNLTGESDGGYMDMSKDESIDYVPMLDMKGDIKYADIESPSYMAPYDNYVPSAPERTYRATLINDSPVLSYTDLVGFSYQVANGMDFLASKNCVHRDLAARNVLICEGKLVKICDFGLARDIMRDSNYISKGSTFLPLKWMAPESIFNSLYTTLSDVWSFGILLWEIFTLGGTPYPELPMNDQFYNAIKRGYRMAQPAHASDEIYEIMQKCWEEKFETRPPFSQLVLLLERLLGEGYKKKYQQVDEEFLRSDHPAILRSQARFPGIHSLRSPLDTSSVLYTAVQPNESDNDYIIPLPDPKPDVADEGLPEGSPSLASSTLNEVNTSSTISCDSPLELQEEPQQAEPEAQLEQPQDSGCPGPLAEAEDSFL

| Binder | binding result (mPDGFR-β on NIH3T3 cells [1]) | binding result [2] | binding result [3] | IC50 (nM) of relative cell viability (cellular ATP), human pericyte cells, bispecific complexed with cot-duo, with hPDGF-BB [4] [nM] | IC50 (nM) of relative cell viability (cellular ATP), human pericyte cells, bispecific complexed with cot-duo, without hPDGF-BB [4] [nM] | binding result (mPDGFR-β on NIH3T3 cells [5]) |
| --- | --- | --- | --- | --- | --- | --- |
| mPDGF-BB-biotin (ligand, mouse, UniProt P31240 82-190, looked up, biotinylated (biotin-xx microscale protein labeling kit); sites not stated, also called biotin-mPDGF-BB) SLGSLAAAEPAVIAECKTRTEVFQISRNLIDRTNANFLVWPPCVEVQRCSGCCNNRNVQCRASQVQMRPVQVRKIEIVRKKPIFKKATVTLEDHLACKCETIVTPRPVT | binds |  |  |  |  |  |
| PRb-CN32 x cotinine scFv-Cκ-scFv fusion protein (bispecific antibody) (bispecific antibody, also called PRb-32; PRb-CN32 bispecific scFv-Cκ-scFv) LTQPSSVSANLGETVKITCSGGSNAGSYYYGWYQQKSPGSAPVTVIYSNNQRPSDIPSRFSGSTSGSTSTLTITGVQVDDEAVYFCGSGDSSSIAAFGAGTTLTVLGQSSRSSGGGGSSGGGGSAVTLDESGGGLQTPRGTLSLVCKASGFTFSSFNMFWVRQAPGKGLEFVAGISTTGRYTGYGSAVQGRGTISRDNGQSTVRLQLNNLRAEDTGTYYCAKSAGSTYSYWDSDAGLIDAWGHGTEVIVSSTSGGGGSGGGGSGGGGSRTVAAPSVFIFPPSDEQLKSGTASVVCLLNNFYPREAKVQWKVDNALQSGNSQESVTEQDSKDSTYSLSSTLTLSKADYEKHKVYACEVTHQGLSLPVTKSFNRGESGGGGSGGGGSGGGGSDIQMTQSPSSLSASVGDRVTITCQSSQSPYSNEWLSWYQQKPGKAPKLLIYRISTLASGVPSRFSGSRSGTDFTLTISSLQPEDFATYYCAGGYNFGLFLFGQGTKVEIKGQSSRSSGGGGSSGGGGSEVQLVESGGGLVQPGGSLRLSCAASGHLRRRDWMNWVRQAPGKGLEWVAAIGRSGDTYYATWAKGRFTISADTSKNTAYLQMNSLRAEDTAVYYCSRIPYFGWNNGDIWGQGTLVTVSS |  | binds | binds | 0.87 | 0.78 | binds |
